This series deals with the molecule itself. The series is described as follows: mass photometry.

Experimental findings from publication PMC13184981 (ACS Chemical Biology, 2026) are described below.

B1: Purified recombinant full-length LIMK1 (natural protein)
chain: MRLTLLCCTWREERMGEEGSELPVCASCGQRIYDGQYLQALNADWHADCFRCCDCSASLSHQYYEKDGQLFCKKDYWARYGESCHGCSEQITKGLVMVAGELKYHPECFICLTCGTFIGDGDTYTLVEHSKLYCGHCYYQTVVTPVIEQILPDSPGSHLPHTVTLVSIPASSHGKRGLSVSIDPPHGPPGCGTEHSHTVRVQGVDPGCMSPDVKNSIHVGDRILEINGTPIRNVPLDEIDLLIQETSRLLQLTLEHDPHDTLGHGLGPETSPLSSPAYTPSGEAGSSARQKPVLRSCSIDRSPGAGSLGSPASQRKDLGRSESLRVVCRPHRIFRPSDLIHGEVLGKGCFGQAIKVTHRETGEVMVMKELIRFDEETQRTFLKEVKVMRCLEHPNVLKFIGVLYKDKRLNFITEYIKGGTLRGIIKSMDSQYPWSQRVSFAKDIASGMAYLHSMNIIHRDLNSHNCLVRENKNVVVADFGLARLMVDEKTQPEGLRSLKKPDRKKRYTVVGNPYWMAPEMINGRSYDEKVDVFSFGIVLCEIIGRVNADPDYLPRTMDFGLNVRGFLDRYCPPNCPPSFFPITVRCCDLDPEKRPSFVKLEHWLETLRMHLAGHLPLGPQLEQLDRGFWETYRRGESGLPAHPEVPD
notes: source: insect cells, baculovirus, purified (Ni-NTA, SP Sepharose, TEV cleavage, SEC)
What is called stoichiometry N is the number of molecules, sites or subunits per partner or assembly. For B1, the “stoichiometry N” value worked out at 2.
